{"source": "the supplement of paper PMC9732359", "note": "± gives the uncertainty stated by the source.", "data": [{"experiment": "protein stability index of a GFP-peptide fusion (yeast GPS) (PSI 1-4); higher = more stable; sorted into four equal gates, so the index is relative within each strain", "details": "pdr5∆", "method_in_brief": "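Plasmids in a pooled yeast library fused tiled 17-residue yeast protein peptides downstream of GFP and also expressed Cherry. Mid-log cultures grown without leucine were sorted into four equal gates by GFP/Cherry fluorescence ratio. Each gate's plasmids were PCR-amplified and Illumina-sequenced, and reads were matched to strains by barcodes. The protein stability index is derived by multiplying each gate's read frequency by its gate number and summing the results.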", "values": [{"sequence": "DLSEKILNDIETLEHNP [BRR2]", "protein stability index": "3.21 ± 0.07"}, {"sequence": "DLSSAASASGAAGAGAA [FAS2]", "protein stability index": "1.51 ± 0.11"}, {"sequence": "DMFEMSDEEENNNNKSI [SSN2]", "protein stability index": "3.19 ± 0.18"}, {"sequence": "DMLTWVDSNLPDDEKFT [RPC40]", "protein stability index": "3.14 ± 0.063"}, {"sequence": "DNEEASVKLDLQDDEDH [BRN1]", "protein stability index": "3.45 ± 0.084"}, {"sequence": "DNFSPHQNVIIGSNGSG [SMC3]", "protein stability index": "2.89 ± 0.14"}, {"sequence": "DNGGTILGIAGEDFAVL [PRE7]", "protein stability index": "3.08 ± 0.13"}, {"sequence": "DNIRYATALQTCAGGRL [SMC2]", "protein stability index": "3.02 ± 0.083"}, {"sequence": "DNIYRNLQKIDKDSEEL [MED4]", "protein stability index": "3.16 ± 0.058"}, {"sequence": "DNKEKDFELEISWCSLS [PRE10]", "protein stability index": "3.13 ± 0.14"}, {"sequence": "DNLLEMSDHSLDKLNCA [RRP6]", "protein stability index": "3 ± 0.068"}, {"sequence": "DNLLLNLEQINEDLEDG [REC8]", "protein stability index": "2.67 ± 0.066"}, {"sequence": "DNVNSTTGSIFEKDLMA [BRN1]", "protein stability index": "3.01 ± 0.068"}, {"sequence": "DNVSFIEEAKSIRRQDY [REC8]", "protein stability index": "3.06 ± 0.11"}, {"sequence": "DPASFYLFDEIDAALDK [SMC3]", "protein stability index": "3.02 ± 0.082"}, {"sequence": "DPEKDSINATALAFGYV [SIN4]", "protein stability index": "1.56 ± 0.058"}, {"sequence": "DPLLSLYNFLHKYVLTL [RGR1]", "protein stability index": "2.12 ± 0.07"}, {"sequence": "DPPNEGDPFDYKAQADT [RPB3]", "protein stability index": "3.42 ± 0.12"}, {"sequence": "DPQHKAIRRDARYNWIC [RPL15A]", "protein stability index": "3.31 ± 0.12"}, {"sequence": "DPVLDWRKSDRELTKNI [SIR4]", "protein stability index": "2.2 ± 0.083"}, {"sequence": "DQFHRDTISAITHQLNN [RPC25]", "protein stability index": "2.12 ± 0.057"}, {"sequence": "DQFIRHVLRGVESPDKN [YCG1]", "protein stability index": "3.77 ± 0.2"}, {"sequence": "DQFITSLKCTDPYELKG [ITC1]", "protein stability index": "2.66 ± 0.09"}, {"sequence": "DQKIWPYLEKYPEYDQI [SSN3]", "protein stability index": "3.08 ± 0.09"}, {"sequence": "DQKPIEHIKEGSEIAIS [SWI3]", "protein stability index": "3.21 ± 0.069"}, {"sequence": "DQKTGRAKSSSHLFNEY [RPN4]", "protein stability index": "3.22 ± 0.24"}, {"sequence": "DQNPIQVVVDAITNTGP [RPS5]", "protein stability index": "2.79 ± 0.041"}, {"sequence": "DQQSPWLLRLELDRAAM [RPO21]", "protein stability index": "1.83 ± 0.14"}, {"sequence": "DQWLEEYKKHFPPNLEK [UBP6]", "protein stability index": "3.06 ± 0.053"}, {"sequence": "DRFKYRSVDRAGRKFKS [POP4]", "protein stability index": "3.24 ± 0.18"}, {"sequence": "DRFPLKLREPVARFLHF [ITC1]", "protein stability index": "1.7 ± 0.067"}, {"sequence": "DRHIGCAMSGLTADARS [PUP2]", "protein stability index": "3.08 ± 0.12"}, {"sequence": "DRQLHEISTSKKNNLEF [RPN14]", "protein stability index": "3.13 ± 0.075"}, {"sequence": "DRRKARKAYFTAPSSER [RPL26B]", "protein stability index": "2.72 ± 0.16"}, {"sequence": "DRTMLAPMDFAIVVGWR [FAS1]", "protein stability index": "2.43 ± 0.062"}, {"sequence": "DRTQDRADVEDESNDID [RPC37]", "protein stability index": "3.52 ± 0.092"}, {"sequence": "DSEGSIKQTSDESTIKR [ECM29]", "protein stability index": "3.56 ± 0.085"}, {"sequence": "DSFENYFNQLKPYYFSN [RPN12]", "protein stability index": "2.95 ± 0.1"}, {"sequence": "DSFSVPNRLVKELQYDN [PRE2]", "protein stability index": "2.94 ± 0.24"}, {"sequence": "DSFTMPNISHSNIDYQT [SNF2]", "protein stability index": "2.12 ± 0.1"}, {"sequence": "DSLKKLLPQWDDDQIES [ARP9]", "protein stability index": "3.17 ± 0.087"}, {"sequence": "DSLNDDLNKENKLLRRK [YIL149C/MLP2]", "protein stability index": "3.24 ± 0.18"}, {"sequence": "DSLSGAVIAAIMQEAGL [RPT3]", "protein stability index": "1.14 ± 0.18"}, {"sequence": "DSLTRAVKDQQKYTKEM [SNF2]", "protein stability index": "1.8 ± 0.11"}, {"sequence": "DSQIVTPGELVTDDPIW [RRP4]", "protein stability index": "3.07 ± 0.11"}, {"sequence": "DSRTTTGAYIANRVTDK [PRE3]", "protein stability index": "3.29 ± 0.11"}, {"sequence": "DSSLQPEYFESPLQSSK [YMR129W/POM152]", "protein stability index": "2.98 ± 0.12"}, {"sequence": "DSSTTSSNSQQSTPQPD [ITC1]", "protein stability index": "2.85 ± 0.048"}, {"sequence": "DSTVVYPLPKFPTTSHE [MED8]", "protein stability index": "3.06 ± 0.051"}, {"sequence": "DSVAAIGIPVNKASLAQ [QCR2]", "protein stability index": "2.61 ± 0.052"}, {"sequence": "DSYLILDTLPSEFDSRV [RPT5]", "protein stability index": "3.48 ± 0.12"}, {"sequence": "DTFLPPPPPPPSNFEIN [PRP8]", "protein stability index": "2.57 ± 0.039"}, {"sequence": "DTLLLLPTDGGLTSRLQ [POP4]", "protein stability index": "3.06 ± 0.15"}, {"sequence": "DTNAPVAATITSSQKEP [SRB8]", "protein stability index": "2.79 ± 0.13"}, {"sequence": "DTNNEADLMALENATWT [SNF12]", "protein stability index": "3.18 ± 0.11"}, {"sequence": "DTNSSKPKNTKENLSKS [SIR4]", "protein stability index": "1.56 ± 0.12"}, {"sequence": "DTQTFSVLLQQLLTPGS [YGL172W/NUP49]", "protein stability index": "1.43 ± 0.095"}, {"sequence": "DTSAEKDQIQAGKWFDP [SIR4]", "protein stability index": "3.57 ± 0.14"}, {"sequence": "DTSYKIDGKTVSYKDYS [SMC1]", "protein stability index": "2.79 ± 0.042"}, {"sequence": "DTVNSALENDVATNIVN [YML103C/NUP188]", "protein stability index": "3.14 ± 0.064"}, {"sequence": "DTYRTLMEEIESLKKEL [YIL149C/MLP2]", "protein stability index": "3.36 ± 0.092"}, {"sequence": "DVIAWKNVLANSIWGSS [ITC1]", "protein stability index": "2.95 ± 0.088"}, {"sequence": "DVKTAEEASQLIEYMEN [NUT1]", "protein stability index": "3.04 ± 0.099"}, {"sequence": "DVMDELITSSARKELPI [SIR3]", "protein stability index": "2.26 ± 0.13"}, {"sequence": "DVQVDAEEKREAVIDEK [ITC1]", "protein stability index": "2.32 ± 0.18"}, {"sequence": "DVRRLKKNVWRSINNLI [BRN1]", "protein stability index": "1.9 ± 0.11"}, {"sequence": "DVTPADDLKQKKEELVE [RPO31]", "protein stability index": "3.25 ± 0.093"}, {"sequence": "DWFTYSYFYRRIHVNPS [BRR2]", "protein stability index": "1.28 ± 0.038"}, {"sequence": "DYMYENGKLTSANERLF [YML031W/NDC1]", "protein stability index": "3.28 ± 0.11"}, {"sequence": "DYPSTSLDIRHDFIKGL [NUT1]", "protein stability index": "2.88 ± 0.076"}, {"sequence": "DYRPAEETEAQAEPVEA [RPS3]", "protein stability index": "3.26 ± 0.065"}, {"sequence": "DYSKPNLPPHYALFLKA [SSN2]", "protein stability index": "2.03 ± 0.073"}, {"sequence": "DYYYEDAGSNQYYVTQH [SWI1]", "protein stability index": "3.34 ± 0.082"}, {"sequence": "EAESLLQFHVATYMDND [RPO21]", "protein stability index": "2.7 ± 0.13"}, {"sequence": "EAINGFKDETISKKIIG [SIR3]", "protein stability index": "3.19 ± 0.057"}, {"sequence": "EALQYDPQPFLKHVLQL [SNU114]", "protein stability index": "2.53 ± 0.047"}, {"sequence": "EAMYKLQLASLQQKQRD [SMC3]", "protein stability index": "2.76 ± 0.078"}, {"sequence": "EAQDEASLQQQQQQDLQ [SNF6]", "protein stability index": "3.15 ± 0.1"}, {"sequence": "EARFWHLVELLLVFRNA [YDL116W/NUP84]", "protein stability index": "2.1 ± 0.065"}, {"sequence": "EATSNTNSEDKLSKVQL [MED4]", "protein stability index": "2.92 ± 0.071"}, {"sequence": "EAVEIPVNSADGKEDVE [SME1]", "protein stability index": "2.8 ± 0.056"}, {"sequence": "ECGTGTTIHTFNRKENP [RPN14]", "protein stability index": "2.5 ± 0.1"}, {"sequence": "ECSKDMKEDGLSFVDIV [SIR4]", "protein stability index": "3.39 ± 0.1"}, {"sequence": "EDDESLGHKELKVRKGH [RPB2]", "protein stability index": "2.54 ± 0.067"}, {"sequence": "EDDNTPAGHAGNPTNIS [YDL088C/ASM4]", "protein stability index": "2.88 ± 0.063"}, {"sequence": "EDDTQIVTGNLVLDLLT [IRR1]", "protein stability index": "2.83 ± 0.047"}, {"sequence": "EDEDEDLFGDSNKSNST [SSN2]", "protein stability index": "2.82 ± 0.061"}, {"sequence": "EDEFIVQHDQILVMETS [SWP82]", "protein stability index": "2.54 ± 0.063"}, {"sequence": "EDFPIDTWANGETIKSN [SEM1]", "protein stability index": "3.61 ± 0.19"}, {"sequence": "EDILYYSTCPSETDLND [SRB8]", "protein stability index": "1.56 ± 0.099"}, {"sequence": "EDLFETISQALLNAADR [PUP3]", "protein stability index": "2.01 ± 0.089"}, {"sequence": "EDPKRRADTMDFKTDVD [YJL039C/NUP192]", "protein stability index": "3.51 ± 0.086"}, {"sequence": "EDSSILQSIVNEISRNG [PCI8]", "protein stability index": "2.96 ± 0.1"}, {"sequence": "EDTLSGYDPIVSTRAID [PRP28]", "protein stability index": "2.67 ± 0.12"}, {"sequence": "EDVALNEQVKKFFLNNV [NAS6]", "protein stability index": "2.5 ± 0.058"}, {"sequence": "EDVDDEELDITPLFPID [IRR1]", "protein stability index": "3.36 ± 0.15"}, {"sequence": "EDYPMSSEIKIYYNELQ [SIR4]", "protein stability index": "3.16 ± 0.13"}, {"sequence": "EEAKEEVTEEQAEATEW [RPS0A]", "protein stability index": "3.49 ± 0.1"}, {"sequence": "EEASQLIEYMENDAKKS [NUT1]", "protein stability index": "3.2 ± 0.067"}, {"sequence": "EEDDEGELEQAQAWINL [RPN7]", "protein stability index": "3.23 ± 0.11"}, {"sequence": "EEDISDLWNNFGNIMDN [RRP6]", "protein stability index": "2.98 ± 0.071"}]}]}
